# Experimental data from paper PMC3782484.
# Legend:
# [1] = target: 6pGST, recombinant FbsA fragment 6p (five repeats) fused to GST (Streptococcus agalactiae strain COH1); experiment: SPR; BIAcore X; 5pGST or 6pGST (500 nM) captured on immobilized goat anti-GST antibody, GST alone in the reference cell; human Fng flowed at 2.92 nM to 750 nM, 20 µl/min; equilibrium analysis
# [2] = target: 5pGST, recombinant FbsA fragment 5p (one repeat) fused to GST (Streptococcus agalactiae strain COH1); experiment: as above
# [3] = target: 6pGST, recombinant FbsA fragment 6p (five repeats) fused to GST (Streptococcus agalactiae strain COH1); experiment: ELISA; 5pGST or 6pGST (500 ng/well) coated overnight at 4°C in 0.1 M carbonate buffer, blocked with 2% BSA, increasing amounts of human Fng; detected with mouse anti-human Fng IgG and peroxidase-conjugated rabbit anti-mouse IgG
# [4] = target: 5pGST, recombinant FbsA fragment 5p (one repeat) fused to GST (Streptococcus agalactiae strain COH1); experiment: as above
substance,measurement,setting,value
Human fibrinogen (from UniProt P02671 36-866; P02675 45-491; P02679 27-453) (complex),Kd,[1],23 nM
same,Kd,[2],27.5 nM
same,EC50,[3],63 nM
same,EC50,[4],31.2 nM
